Target: T1, Flag-MnmC(o), C-terminal oxidoreductase domain of MnmC (amino acids 250-668) (E. coli, UniProt P77182 250-668)
T1 sequence (looked up): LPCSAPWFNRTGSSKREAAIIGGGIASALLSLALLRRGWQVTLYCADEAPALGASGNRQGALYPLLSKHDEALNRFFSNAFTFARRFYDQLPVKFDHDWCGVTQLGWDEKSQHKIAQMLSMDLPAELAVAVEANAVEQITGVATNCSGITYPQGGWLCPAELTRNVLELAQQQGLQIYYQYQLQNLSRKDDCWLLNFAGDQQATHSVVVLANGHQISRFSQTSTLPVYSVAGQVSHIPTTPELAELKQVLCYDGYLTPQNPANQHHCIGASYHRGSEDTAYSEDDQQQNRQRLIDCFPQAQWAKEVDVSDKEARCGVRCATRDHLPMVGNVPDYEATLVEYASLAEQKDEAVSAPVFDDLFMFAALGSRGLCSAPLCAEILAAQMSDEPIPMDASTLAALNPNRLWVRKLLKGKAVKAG
Assay: SPR; His-MnmC(m) captured (~600 RU) on anti-His monoclonal antibody coupled to a CM-5 chip; Flag-MnmC(o) at various concentrations in TBS buffer, 30 µl/min, 25°C; apparent equilibrium constant
Conditions: both partners purified

B1: His-MnmC(m), MnmC(m) domain fused at its N-terminal end to a 6x-His-epitope (domain or fragment, E. coli, UniProt P77182 1-250, looked up)
chain: MKHYSIQPANLEFNAEGTPVSRDFDDVYFSNDNGLEETRYVFLGGNQLEVRFPEHPHPLFVVAESGFGTGLNFLTLWQAFDQFREAHPQAQLQRLHFISFEKFPLTRADLALAHQHWPELAPWAEQLQAQWPMPLPGCHRLLLDEGRVTLDLWFGDINELTSQLDDSLNQKVDAWFLDGFAPAKNPDMWTQNLFNAMARLARPGGTLATFTSAGFVRRGLQDAGFTMQKRKGFGRKREMLCGVMEQTLPL
- Kd: 87 ± 15 nM

From PMC3936742 (Nucleic Acids Research, 2013)
